Assays:
[1] = target: SARS-COV-2 RBD Mu variant (SARS-CoV-2)
[2] = target: SARS-COV-2 RBD Gamma variant (SARS-CoV-2)
[3] = target: SARS-COV-2 RBD Lambda variant (SARS-CoV-2)
[4] = target: SARS-COV-2 RBD Beta variant (SARS-CoV-2)

Sequence of huACE2-Fc (Q9BYF1 18-740): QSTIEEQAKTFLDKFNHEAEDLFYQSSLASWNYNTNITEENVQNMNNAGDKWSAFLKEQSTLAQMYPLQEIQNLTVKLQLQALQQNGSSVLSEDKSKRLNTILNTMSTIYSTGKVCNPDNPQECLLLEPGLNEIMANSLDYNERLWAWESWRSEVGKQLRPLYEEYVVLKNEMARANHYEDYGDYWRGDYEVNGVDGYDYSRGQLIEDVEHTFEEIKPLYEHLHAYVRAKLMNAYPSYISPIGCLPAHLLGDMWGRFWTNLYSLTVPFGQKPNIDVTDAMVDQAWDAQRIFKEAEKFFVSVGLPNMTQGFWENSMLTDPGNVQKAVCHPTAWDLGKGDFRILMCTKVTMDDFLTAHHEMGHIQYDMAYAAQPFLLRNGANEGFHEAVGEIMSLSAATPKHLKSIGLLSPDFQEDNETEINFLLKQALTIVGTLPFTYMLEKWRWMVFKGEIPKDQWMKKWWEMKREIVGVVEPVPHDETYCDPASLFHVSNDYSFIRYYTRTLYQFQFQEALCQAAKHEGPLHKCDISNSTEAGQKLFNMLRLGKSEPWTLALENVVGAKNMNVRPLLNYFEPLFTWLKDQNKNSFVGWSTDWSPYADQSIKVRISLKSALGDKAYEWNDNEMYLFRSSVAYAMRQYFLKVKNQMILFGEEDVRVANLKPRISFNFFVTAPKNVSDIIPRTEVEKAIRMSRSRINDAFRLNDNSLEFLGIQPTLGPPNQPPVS

In the case of “huACE2-Fc (from UniProt Q9BYF1) (Fc fusion)”, the Kd [1] is reported as 12.9 nM, the Kd [2] is reported as 3.6 nM and the Kd [3] is reported as 5.34 nM. For the same substance, the Kd [4] was 44.4 nM.
